What is called EC50 is the concentration giving half of the maximal effect. A high value points to a less potent agent.

In assay [1] the target is mC-GCGR-31C-NBD (minimal cysteine GCGR labelled with NBD on the N-terminal helix of the ECD) (human) (UniProt P47871). Put plainly: other fluorescence titration.
In assay [2] the target is mC-GCGR-345C-NBD (minimal cysteine GCGR labelled with NBD at the cytoplasmic end of TM6) (human) (UniProt P47871). The assay is described as follows: other fluorescence titration.
Assay [3] addresses Nanoluc-GCGR fusion protein (human) (UniProt P47871). Put plainly: FRET or BRET.
Assay [4] deals with Human glucagon receptor (Q27-F477) (human, UniProt P47871 27-477). Put plainly: pull-down.
Chain of Human glucagon receptor (Q27-F477) (P47871 27-477): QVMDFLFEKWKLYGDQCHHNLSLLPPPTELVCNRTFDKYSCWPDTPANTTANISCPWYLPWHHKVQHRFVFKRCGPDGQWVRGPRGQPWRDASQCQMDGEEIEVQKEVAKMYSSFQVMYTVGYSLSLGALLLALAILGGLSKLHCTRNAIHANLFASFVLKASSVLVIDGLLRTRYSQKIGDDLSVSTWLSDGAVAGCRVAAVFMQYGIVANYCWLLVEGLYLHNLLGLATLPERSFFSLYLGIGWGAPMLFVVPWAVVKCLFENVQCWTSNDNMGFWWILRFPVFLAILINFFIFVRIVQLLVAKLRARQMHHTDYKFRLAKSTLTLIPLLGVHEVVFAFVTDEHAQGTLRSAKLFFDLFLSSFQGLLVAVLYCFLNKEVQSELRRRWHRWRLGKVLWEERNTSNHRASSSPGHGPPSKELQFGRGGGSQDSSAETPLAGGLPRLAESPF

Chain of Nanoluc-GCGR fusion protein (human) (P47871 26-477): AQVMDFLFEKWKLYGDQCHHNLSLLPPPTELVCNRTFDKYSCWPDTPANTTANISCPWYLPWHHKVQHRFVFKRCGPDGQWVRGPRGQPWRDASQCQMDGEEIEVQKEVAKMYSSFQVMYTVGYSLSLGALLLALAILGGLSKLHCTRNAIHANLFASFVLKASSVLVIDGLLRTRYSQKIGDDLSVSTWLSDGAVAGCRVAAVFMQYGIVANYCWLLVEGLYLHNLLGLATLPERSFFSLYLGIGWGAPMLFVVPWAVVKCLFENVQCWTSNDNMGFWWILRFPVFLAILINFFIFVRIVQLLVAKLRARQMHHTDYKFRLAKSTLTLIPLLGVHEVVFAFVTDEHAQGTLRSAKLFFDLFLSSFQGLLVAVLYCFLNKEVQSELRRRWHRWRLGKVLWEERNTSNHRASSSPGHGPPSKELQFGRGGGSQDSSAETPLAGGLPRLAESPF

As for “human RAMP2 (residues 43-175) (from UniProt O60895 43-175) (natural protein)”, the EC50 in assay [1] worked out at 131 nM; in assay [2], 225 nM.

Molecule Dasi-E21S-A17K(TAMRA) (peptide) gave a fold decrease in affinity with co-expressed RAMP2 against without RAMP2 in assay [3] of 2.9 fold.

B1: human RAMP2 (residues 43-175) (natural protein, UniProt O60895 43-175, looked up)
chain: QPLPTTGTPGSEGGTVKNYETAVQFCWNHYKDQMDPIEKDWCDWAMISRPYSTLRDCLEHFAELFDLGFPNPLAERIIFETHQIHFANCSLVQPTFSDPPEDVLLAMIIAPICLIPFLITLVVWRSKDSEAQA
Take B1: the binding result in assay [4] is recorded as “binds”.

(Values after publication PMC10144504 (Cell, 2023).)
